In publication PMC5294778:

Target: FBXW7 (UniProt Q8VBV4)
Assay: anti-FLAG co-IP, MCL1-HA blot
Conditions: reference: WT MCL1-HA; sites S140

Substance: MCL1 (from UniProt P97287) MCL1-HA S140A
- binding against the reference: weaker
